Values quoted from earlier work, collected in patent US20070032474A1, “Use of a compound of formula 1 for making a pharmaceutical composition” (priority 2003, published 2007).

Biological target: PKBbeta (Homo sapiens, UniProt P31751)
Settings: background, reference (5); read-out: AC50 (activation of PKBbeta)

PKBbeta, sequence (P31751 146-460 limits assumed, species assumed): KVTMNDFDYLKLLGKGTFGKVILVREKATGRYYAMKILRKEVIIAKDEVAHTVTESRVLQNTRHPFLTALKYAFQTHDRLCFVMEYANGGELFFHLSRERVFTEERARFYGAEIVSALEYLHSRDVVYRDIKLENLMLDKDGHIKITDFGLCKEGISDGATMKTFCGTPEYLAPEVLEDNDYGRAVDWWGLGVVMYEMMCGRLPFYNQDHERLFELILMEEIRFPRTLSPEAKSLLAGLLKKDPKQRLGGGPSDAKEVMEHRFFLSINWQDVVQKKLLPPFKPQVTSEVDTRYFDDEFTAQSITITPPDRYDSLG

- AC50: 5 µM
Substance: polypeptide NH2-REPRILSEEEQEMFRDFDYIADW-COOH comprising a hydrophobic motif; activates AGC kinases (H-REPRILSEEEQEMFRDFDYIADW-OH) [PIFtide]
